Test results published in patent US20190040107.
Where a chain is given by its changes, count along the chain named. Numbers in names are those of the source.

T1: astexin-1
T1 chain: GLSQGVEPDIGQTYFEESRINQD

T2: astexin-2 ΔC3 (lassoed, threaded)
T2 chain: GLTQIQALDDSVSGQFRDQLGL

T3: astexin-2 ΔC4 (lassoed, threaded)
T3 chain: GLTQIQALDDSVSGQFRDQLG

T4: astexin-3 (lassoed, full-length)
T4 chain: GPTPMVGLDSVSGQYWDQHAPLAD

T5: astexin-3 ΔC1
T5 chain: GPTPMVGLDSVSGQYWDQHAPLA

T6: astexin-3 ΔC2
T6 chain: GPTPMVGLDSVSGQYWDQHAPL

T7: unthreaded astexin-2 ΔC3
T7 chain: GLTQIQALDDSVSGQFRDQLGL

T8: unthreaded astexin-2 ΔC4
T8 chain: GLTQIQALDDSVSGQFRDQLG

B1: C-terminally His-tagged AtxE2 (protein)
chain: AAREAPPVTPEVLVRLADIGTMSASETTPLLSLSPDGRYVAFQVRQADPVTNLNVFRMVVKATDGATDAIDVDVGGEYLFWTIPSWGYARNAPSGANLTIQPRWSPSGTHLAYLRQDQGRVRVWRASVKGEGASPVIEDAYDIEDVQWLDDNTLIYSGRPGFVEAEAEIEREGRRGWVYDERFHPLTGARPRVLEPISIVYQVLDLKTGTRRAATPTEVARLREKPDPLRAMVGRTTFSVSRTDPQNINAPTTLVARRGEGEPVRCDEEACQNITRMWGDETANVLYFLRREGWASNEMALYRMPADALKPVRIWHATGLLQGCERQAKRLICAQESALQPRRLVTLNLTSGQMSPLYDPNPDLSRYRLPKVERLTLRNRNGIEVFSDLVLPPDYQLGTRLPLVIVQYSSRGFLRGGTGDENPILPLATAGFAVLSFHSPRSEASYQRFTSPIAQSKAEYSNWRNRWNILHTLEDLIDDLDRRGVIDPARVGLTGLSDGATTVHFGLINSHRFAAAVTSSCCTDSFTASVMNGPRISGALKAYGIETDQADDGPFWAATSFVVNASRLDTPLLIQSADEEYLGALPGFTALQQARKPVELIIYPNEHHVKWQPAHRLAVYNRTIDWFRFWLMDQSDPAPDKAAQYDRWRALRALRQKSPSPTPAP
B2: His-tagged S527A mutant of AtxE2 (protein)
chain: B1 chain with S497A

Assays:
astexin-1 = target: T1, astexin-1
[1] = target: T2, astexin-2 ΔC3 (lassoed, threaded)
[2] = target: T3, astexin-2 ΔC4 (lassoed, threaded)
[3] = target: T4, astexin-3 (lassoed, full-length)
astexin-3 ΔC1 = target: T5, astexin-3 ΔC1
astexin-3 ΔC2 = target: T6, astexin-3 ΔC2
unthreaded astexin-2 ΔC3 = target: T7, unthreaded astexin-2 ΔC3
unthreaded astexin-2 ΔC4 = target: T8, unthreaded astexin-2 ΔC4

Protein	hydrolysis (HPLC retention time, MS) after 6 hours with 860 nM AtxE2 (astexin-1)	hydrolysis (HPLC retention time) of purified peptide with 424 nM AtxE2 [1]	hydrolysis (HPLC retention time, MALDI MS) after 6 hours with 860 nM AtxE2 [1]	hydrolysis (HPLC retention time, MALDI MS) after 6 hours with 860 nM AtxE2 [2]	Km [3]	hydrolysis (HPLC retention time, MALDI MS) after 6 hours with 860 nM AtxE2 [3]	kcat [3]	kcat/Km [3]	hydrolysis (HPLC retention time, MALDI MS) after 6 hours with 860 nM AtxE2 (astexin-3 ΔC1)	hydrolysis (HPLC retention time, MALDI MS) after 6 hours with 860 nM AtxE2 (astexin-3 ΔC2)	hydrolysis (HPLC retention time) in lysate extract treated with AtxE2 (unthreaded astexin-2 ΔC3)	hydrolysis (HPLC retention time) of purified, heat-treated peptide with 424 nM AtxE2 (unthreaded astexin-2 ΔC3)	hydrolysis (HPLC retention time) in lysate extract treated with AtxE2 (unthreaded astexin-2 ΔC4)	activity toward astexin-3 in vitro [3]
B1	the retention time of astexin-1 did not shift after incubation with AtxE2 and no molecular weight difference was observed in the MS	only the threaded species exhibited a change in retention time consistent with hydrolysis of the isopeptide bond	an increase of 18 mass units for all astexin-2 and astexin-3 species, corresponding to the addition of a water molecule via the cleavage of a single amide bond	an increase of 18 mass units for all astexin-2 and astexin-3 species, corresponding to the addition of a water molecule via the cleavage of a single amide bond	Km equal to 131 µM	an increase of 18 mass units for all astexin-2 and astexin-3 species, corresponding to the addition of a water molecule via the cleavage of a single amide bond	kcat equal to 0.38 s^-1	kcat/Km value for AtxE2 to be 2.9×10^3 M^-1 s^-1	an increase of 18 mass units for all astexin-2 and astexin-3 species, corresponding to the addition of a water molecule via the cleavage of a single amide bond	an increase of 18 mass units for all astexin-2 and astexin-3 species, corresponding to the addition of a water molecule via the cleavage of a single amide bond	the retention times for these unthreaded species did not change after incubation with AtxE2	only the threaded species exhibited a change in retention time consistent with hydrolysis of the isopeptide bond	the retention times for these unthreaded species did not change after incubation with AtxE2	
B2														AtxE2 S527A had no activity toward astexin-3
